Experimental data: the nanobody polyreactivity screen of Harvey et al. (2022)

Assay: yeast display, Sf9 membrane polyspecificity reagent, FACS + sequencing; frameworks hold sequencing errors
Outline: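 Polyreactivity labels are assigned by the sorting gate from which each nanobody was recovered. The gates were low and high (top ~1%), set on anti-HA fluorescence for expression and streptavidin fluorescence for reagent binding. Before sorting, galactose-induced (36–48 hours) yeast display cells were stained for 1 hour at 4 °C with 10% biotinylated, detergent-solubilized Sf9 membrane reagent.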

Row | Sequence | polyreactivity (PSR sort gate)
1 | QVQLVESGGCLDQAGGSLRLSSAASGRIFFGYAMGWYRQAPGKEREFVAAISSVGSTNYADSVKGRFTISRDNAKNTVYLQMNSLKPEDTAVYYCAAAPRSGGKYGSDGGDYWGQGTQVTVSS | low polyreactivity
2 | QVQLVESGGGLVQAGGSLRLSCAASGSIFFPYAMGWYRQAPGKERELVAAITRSGGRTYYADSVKGRFTISRDNAKNTVYLQMNSLKPEDTAVYYCAAGPWYNFYDSRPWFSYDYWGQGTQVTVSS | low polyreactivity
3 | QVQLVESGGGLVQAGGSLRLSCAASGSTFVWYVMGWYRQAPGKEREFVAAISTSGGRTYYADSVKGRFTISRDNAKNTGYLQMNSLKPEDTAVYYCATRPYFTYRWYDYWGQGTQVTVSS | high polyreactivity
4 | QVQLVESGGGLVQAGGSLRLSCAASGRIFDLYTMGWYRQAPGKERELVAAITSSGDSTYYADSVKGRFTISRDNAKNTVYLQMNSLKPEDTAVYYCAAESKYWEPWWYYYYDMDYWGQGTQVTVSS | low polyreactivity
5 | QVQLVESGGLLVQAGGSLRLSCAASGFIFNQYAMGWDRQAPAKVREFVAGISWSGGATYYADSVKGRFTISRDNAKNTVYLQMNSLKPEETAVYYCAADRTYSFYYTQGYEYWGQGTHVTVSS | low polyreactivity
6 | QVQLVESGGGLVQAGGSLRLSCAASGRTFYYYAMGWYRQAPGKERELVATITSSGGSTYYADSVKGRFTISRDNAKNTVYLQINSLIPEDTAVYYCARTYTYKGGNTHSRWYYYWGQGTHVTVSS | high polyreactivity
7 | QVQLVESGGGLVQAGGTLRLSCAASGSTYEVYAMGWYRQAPGTERELVAVITGNGGSTNYADSVKGRFTISRDNAKNTVYLQMNSLKPEDTAVYYCAADFYTFVRSDYWGQGTQVTVSS | low polyreactivity
8 | QVHLVESGGGLVQAGGSLRLSCAASGYIFYAIAMGWYRQAPGKERELVAAISTGGNTNYADSVKGRFTISRDNAKNTVYVQMNSLKPEDTAVYYCAVRSTGPYRWRTPVTRDYWGQGTQVTVSS | low polyreactivity
9 | QVLLVESGGRLVQAGGSLRLSSAASGRTLNINAMGWYRQAPGKERELVAVISFNGGGTYYADSVKGRFTISRDNGKNTVYLQMNSLKPEDTAVYYCNAVRDRYASDYWGQGTQVTVTS | low polyreactivity
10 | QDQLVESGGGLVHAGGSLRLSCAASGSTFQYYVMGWYRQAPGKERELVAAITWSGGSTYYADSVKGRFTISRDNAKNTVYLQMNSLKPEDTAVYYCKAASGPDFEYEYWGEGTQVTVSS | low polyreactivity
11 | QVQLVESGGGLVQAGGSLRLSCAASGSTFYGYAQGWYRQAPRKERELVAAISRTGTTNYADSVKGRFTISRDNAKNTVYLQMNSLKPEVTAVYYCNVRGYEVWYPLAYDYWGQGTQVTVSS | high polyreactivity
12 | QVQLVESGGGLVQAGGSLRLSCPACGRTFNRYAMGWYRQAPGKERELVATISNSGRTYYADSVKGRFTISRDNAKNTVYLQMNSLKPEDTAVYYCAAQLPSYYKYPRHDYWGKGTQVTVSS | high polyreactivity
13 | QVQLVESGGGLVQAGGSLSLSCAASGRTFVYYAMGWYRQAPGKERELVAAISSSGGRTYYADSVKGRFTISRDNAKNTVYLQMNSLKPEDTAVYYCAARRLSPIYDSWGQGTQVTVSS | high polyreactivity
14 | QVQLVESGGGLVQAGGSLRLSCAASGSIFGYYAMGWYRQAPGTERELVAAINSDGSTDYADSVKGRFTISRDNAKNTVYLQMNSLKPEDTAVYYCATRYYSIFTFFISYTYDYWGQGTQVTVSS | low polyreactivity
15 | QVQLVESGVGLVQAGGSLRLSCAASGSTILQNAMGWYRQAPGKERELVAAISRSGGSTYYADSVKGRFTISRDNAKNTVYLQMNSLKPEDTAVYYCAAGGRRYDDDYWGQGTQVTVSS | high polyreactivity
16 | QVQLVESGGGLVQAGGSLRLSCAASGSTLFYYAMGCYRQAPGKERELVAAITQNGGGTYYADSVKGRFTISRDNAKNTVYLQMNSLKPEDTAVYYCAVTQEYIADHWYGYWGQGTQVTVSS | low polyreactivity
17 | QVQLVESGGGLVQAGGSLRLSCAASGSIFLFNTMGWYRQAPGKERELVAVISRGGITYYADSVKGRFTISRDNAKNTVYLQMNSLKPEDTAVYYCAADGGYWSQYDYWGQGTQVTVSS | low polyreactivity
18 | QVQLVESGGGLVQAGGSLRLSCAASGSTFYYYAMGWYRQAPGKERELVAAITYRGGSTYYADSVKGRFTISRDNAKNTVYLQMNSLKPEDTAVFYCAIVGYKTSSIRYGYWGQGTQVTVSS | high polyreactivity
19 | QVQLVESGGGLVQAGGTLSLSCAATGRNLSYAMGWYRQAPGKERELVAAMNWSGGTTYYADSVKGRFTISRDNAKNTVYLQMNSLKQEDTAVYYCAARVRGTGYNSWGQGTQLTVSS | high polyreactivity
20 | QVQLVDSGGGLVQAGGSLRLTCAASGRIFCDNAMGWYRQEPGKERELVAAISDSVVITYYADSVKGRFTISRDNAKNTVYLQMNSLKPEDTAVYYCAADKRGTVYLSSFWMDYWGQGTQVTVSS | low polyreactivity
21 | QVQLVESGGGLVQAGGSLRLSCAASGSIFIGYAIGWYRQAPGKERELVAAITNGGRTYFADSVKGRFTISRDNAKNTVYLQMISLKPEDTAVYYCAAVPSQTYRRTPYLWHDYWGQGTQVTVSS | high polyreactivity
22 | QVQLVESGGGLVQAGGSLRLSCAASGRTFVQYAMGWYRQAPGKERELVARITSVRSTNYADSVKGRFTISRDNAKNTVYLQLNSLKPEDTAVFYCAAPTVVYRSYYYWGQGTQVTVSS | high polyreactivity

Row | Sequence | polyreactivity (PSR sort gate)
23 | QVQLVESGGGLVQAGGSLRLSCAASRRTFANYAMGWYRQAPGKERELVAAISRSGGSTYYADSVKGRFTISRDNAKNSVYLQMKSLKPEDTAVYYCAARYVRQYYRAEDYWGQGTHVTVSS | high polyreactivity
24 | QVQLVESGGGLVQAGGSLRLSSAASGSIFLGNAMGWYRQAPGKERELVAAISSITGRTYYADSVKGRFTISRDNAKNTVYLQMNSLKPEDTAVYYCAATSLIYGYRTYDYWGQGTQVTVSS | high polyreactivity
25 | QVQLVESGGGLVQAGGSLRLSCAASGSIFDHYAMGWYRQAPGKERELVAAIRTDGSTKYADSVKGRFTISRDNAKNTVYLQMNSLKPEDTAVYYCAATTGYTARWRNRYIYSYWGQGTEVTVSS | high polyreactivity
26 | QVQLVESGGGLVQAGGSLRLSCAASGGIYYYAMGWDRQAPGKERELVAAISSGGGNTNYADSVKGRFTISRDNAKNTVYLQMNSLKPVDTAVYYCAAEHPVTYRTSKFDYWGQGTQVTVSS | low polyreactivity
27 | QVQLVESGGGLVQAGGSLRLSCAASGRTFRLYAMGWYRQAPGKERELVAVIRAGDSTNYADSVKGRFTISRDNAKNTVYLQLNSLKPDDTAVSYCAADVLYYYGKYDYWGQGTQVTVSS | high polyreactivity
28 | QVQLVESGGGLVQAGGSLRLSCAASGGIFDGYAMGWYRQAPGKERELVAAINYSVDRTYYADSVKGRFTISRDNAKNTVYLQMNSLKPVDTAVYYCATVPRYVRFGYGYWGQGTQVTVSS | high polyreactivity
29 | QVQLVESAGGLVQAGGSLRLSCPASGGISALYAMGWYRQAPGKERELVAAISASGGSTYYADSVKGRFTISRDNAKNTVYLQMNSLKPEDTAVYYCNVAVLTSDIYSTTIYYYGIYDYWGQGTQVTVSS | high polyreactivity
30 | QVQLVESGGGLVQAGGSLRLSCAASGSTFYSYAMGWYSQAPGKERELVARIRWSGYTYSADSVKGRFTISRDNAKNTVYLQMNSLKPEDTAVSYCAAKRGFHIADYWGQGTQVTVSS | high polyreactivity
31 | QVQLVESGGGFVQAGGSLRLSCAASGSIFYYNAMGWYRQAPGKERELVAAIDWSGGITYYADSVKGRFTISRDNAKNTVYLQMNSLKPEDTAVYYCNVPMPPAKAEYGYWGQGTQVTVSS | high polyreactivity
32 | QVQLVESGGGLVQAGGSLRLSCAASGRTIWYYAMGWYRQAPGNERELVASITRSGGSTYADSVQGRFPISRDNAKNTVYLQMNSLKPQDTAVYYCAVGAVVPGLRRRTYYYWGQGTQVTVSS | high polyreactivity
33 | QVQLVESGGGIVQAGGSLRLSSAASGRIFDTNAMGWYRQAPGKERELVAAITGRGGGTYYADSVKGRFTISRDNAKNTVYLQMNSLKPEDTAVYYCNAFAPIYRHYSWGSGLDYWGQGTLVTVSS | high polyreactivity
34 | QVQLVESGGGLVQAGGSLSLSCAASGRIFNQNAMGWYRQAPGKERELVAAISKSGTRTYYADSVKGRFTISRDNAKNTVYLQMNSLNREDTAVYYCAADYYRRIGGYRYDYDYWGQGTEVTVSS | high polyreactivity
35 | QVQLVESGGGLVQAGGSLRLSCAASGRILGFYAMGWYRQAPGKERELVARINWSGTRTYYADSVKGRFTISRDNAKNTVYLQMNSLKPEDTAVYYCAARRYYPYDYWGQGTQVTVSS | high polyreactivity
36 | QVQLVESGGGLVQAGGSLRLSCAASGLIFYRYTMGWYRQAPGKERELVAAISWRGTRTYYADSVKGRFTISRDNAKNTVYLQMNSLKPEDTAVYYCTAGYVRRYSPSSSWRYDYWGQGTQVTVSS | high polyreactivity
37 | QVQLVESGGGLVQAGGSLRLTCAASGRTYRKNAMGWYRQAPGKETELVAAITGSSGTTYYADSVKARFTISRDNAKISVYFQMNSLKPEDTAVYYCATTVCDPGRRYYYWGLGTQVTVSS | high polyreactivity
38 | QVQLKESGGGLVQAGGSLRLSCAASGNIVDADIMGWYRQAPGKERELVASITDGGSTNYADSVKGRFTISRDNAKNTVYLQMNSLKPEDTAVYYCAAIAYPDIPTYFDYDSEYFYWGQGTQVTVSS | low polyreactivity
39 | QVHLVESGGGLVQAGGSLRLSCAATGRTLTCNARGWYRQAPGKERELVPAISRSGGGSTYYADSVKGRFTISRDTAKNTVYIQMISLKPEDTAVYYCAARYRVHYYWYPMGYWGQGTQVTVSS | high polyreactivity
40 | QVQLVESGGGLVQAGGSLRLSCAASGRIFVVYVMGWYRQAPGKEREFVAAITWGGGNTYYADSVKGRFTISRDNAKNTVYLQMNSLIPEDTAVYYCAAAPRKYVWMDYWGQGTQVTVSS | low polyreactivity
41 | QVQHVESGGGLVQAGGSLRLSCAASGRIIWQNAMGWDRQAPGKERELVAAISSRGGTTYYADSVKGRFTISRDNAKNTVYLQINSLKPEDTAVYYCAKEVWRHYLNLYDYWGQGTQVTVSS | low polyreactivity
42 | QVQLVESGGGLVQAGGSLRLSCAASGRIFRYNAMGWYRQAPGKERELVAAITNGGSTNYADSVKGRFTISRDNAKNTVYLQMNSLKPEDTAVYYCNAQGRRYSQRYYYWGQGTQVTVSS | high polyreactivity
43 | QVQHVESGGGLVQAGGSLSLICAASGSIFCYYAMGWYRKAPGKERELVAAIDSGGSTYYADSVKGRFTISRDNAKNTVYLQMNILKPEDTAVYYCAAGVSSFSPYDSWGQGTQVTVSS | low polyreactivity
